Substrate: Nc1ncnc2c1ncn2[C@@H]1O[C@H](COP(=O)(O)OP(=O)(O)OP(=O)(O)O)[C@@H](O)[C@H]1O
Assay: coupled fluorescent ADP assay (ADP-hexokinase/G6PDH/diaphorase/resazurin)
Type: biochemical, Entamoeba histolytica
Conditions: MgCl2, pH 7.5, 37°C, 12.5-2,500 μM ATP

B1: His-EHD1 (Entamoeba histolytica HM-1:IMSS) (protein)
chain: MFGKKKQKPQMDTSYVSVIDGVKKIYDEKIKKLEADYKYDYLVSPLMRQADFEAKPMVLFLGQYSTGKTTFINYLLNYDYPGSHIGPEPTTDGFMAIMHGPNSTNIPGNTLCVQSDKPFTSLSKFGNEFMAKFNGSFCNLPLLEHLTFIDSPGVLSGEKQRIGRSYDFNEVVRWFAERADMIVLVFDAHKLDISDEFKGVIEAVKKHSEKMRLVLNKADSIDSQQLMRVYGALMWSLGKVMQTPECLRVYVSSFWDQPFKESLFTGLFEKERDDLMYDLHALPKQATVRKVNELCKRARLAKANAYITSYLREQMPTFGKDKKKAELLKDLNTVFNTVMKRYNLAAGDFPPIDVYKDRLQNCDFSKFPKLDMRVINAVDDALGTQIPLLLKKFPMEDDLSTHTNPFEVASNFEKCCITLDVSEDEMNSYQKEFDKLPKNEVGKVLGKDCFAPLMASGADKKDLQKIWSIADSGKEGALNAHQYILAKALVRTLLQSGGYPDNLPPVE
notes: full length (ORF primers start to stop), N-terminal His tag (pColdI), tag kept; E. coli BL21, Ni-NTA; native mass 58 kDa
For B1, the Km was 94.91 ± 16.63 µM.

From paper PMC9040739, “Entamoeba histolytica EHD1 Is Involved in Mitosome-Endosome Contact” (mBio, 2022)
